Data on 68 sequences can be found in the domain aggregation screens of Martell et al. (2025).

Where only a bound is given, the exact number is not on record here.

The nature of the series: soluble fraction after stress (log2 fold change); higher = more stays soluble; pooled small domains, quantitative proteomics. As to conditions: stress: pH 4. In short, it runs like this:
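With high-throughput quantitative proteomics, pooled custom libraries of small protein domains were measured after pH 4 stress. Each domain's soluble amount after the stress gives a fold change taken as aggregation propensity. Higher log2 values mean more of the domain stayed soluble.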
For “HMKKYISEEQAKQAALETAGGGSVVKIKFTTDDGIKVYEIDIINGNYEYEITVHAETGKILDVDKERIH”, the “soluble fraction (log2)” value was -0.404.
With “HMKLELSNDFYNKIRLARKENGLTQEDLAEKLNMKVGVIQKIENGVRQTDSNLMKISKFLGVEIYVE”, the “soluble fraction (log2)” value was -0.303.
As to “HMKLPNGYGGIAKLSGKRRNPWRVRVTKGWSVDEQTGKAKQLFSTLGYYPTRKDALAALSAYNQNP”, the “soluble fraction (log2)” value was determined as 0.22.
For “HMKLRLGVNIDPVATVRNARGSAYPDPVRAAIIAQEAGADGITAHLREDRRHIVDQDITSIIKAIDIPLNF”, the “soluble fraction (log2)” value was -0.0902.
Consider “HMKLRSIQEQVQYLEKVDNQKAMQIILNMNDKASAVQILRNMKKEKAAAILAQMDPLQAAQILEDLA”, for which the “soluble fraction (log2)” value is -0.132.
With “HMKLSDDIIVDTIKEIIEENKNMIEQRKMGAMGPLMGKAMAKFKGKADGQTVSNVIKDEILNIIN”, the “soluble fraction (log2)” value came to 0.0647.
The same measure for “HMKLSIEDLAAELIRKIEAGDIGNEQGKMPSERELLAIYPVSRYTLRQALNKLSKMGWIYQMQGRGSYIRF”: -0.83; for “HMKLSNELLNAIMLIKKGIRNPTSLAQRLNTDTQYAKNLLEHLKMTGLINEHSRLTSRGLDIFHQK”: -0.295; for “HMKLTEEEFNAKRKAYLDRLETLNDEAVIKATFMEAASGLGLQKGSAEFGDLRKYFVDRIVDIK”: -0.903.
Turning to “HMKLTEGETIFLNESDTADWKKIPGIGSVYASRIVKYRNLLGGFVSVNQLREVYGIDDELFAKIYPYI”, the “soluble fraction (log2)” value is -0.0375.
For “HMKLTESQLHKFTNDAVLAHIRNLIEFKGAFTEDDIEPIIRDRAAVYGIDLEDEDYKKVKTDVEYHFK”, the “soluble fraction (log2)” value was -1.53.
Turning to “HMKLVELVGSPKQIAWAEDIRKNMISYLSALVRKYEAENRPARAEKRAKDMEILSNIKEASWFIENRS”, the “soluble fraction (log2)” value was determined as 0.155.
On to “HMKMAKTIKEIAEEIGVSKQAVFKKIKQVPLSTEIEKFISTVDGKKLVSVDGENLIKQAFQR”, for which the “soluble fraction (log2)” value turned out to be 0.255.
The same measure for “HMKMLKAPIPGTIIEVKVNPGQTVNDGDVAVVLEAMKMESDIHFNSSGKVKKIHVNKGDSVQEGDDLIELE”: -0.605; for “HMKMNRELNQRQIKMLDYLSVNPKTTRKQYTKMMGISFMTSYRDIQELIDKAYIISKGQGRGTYYILAN”: -0.0196.
Turning to “HMKMQIGEIIRKYRKSNHMTQEEMAERLGVSAPAVNKWENGNSMPDIMLLAPITRLLGISLDELLSFE”, the “soluble fraction (log2)” value is -0.581.
“HMKMSVEEVNLSPRTTNALINNDIKTMKDLVALTDTELRDLKGFGSKAYEEVKEKLSELGLSTQ”: the “soluble fraction (log2)” value was -0.546.
On to “HMKMSVKNEIISLLEKNRDTSISGQVIADSLNVTRAAVWKAIKVLKEEGYNIDGTPNKGYILLGNN”, for which the “soluble fraction (log2)” value came to 0.0991.
“HMKMTFGENLHKLRKIYRLSQEDVASAINLKRSDIAAVEKGDRVLNDEELDKLADFIGIDIVDLL”: the “soluble fraction (log2)” value was -0.853.
Regarding “HMKMVSTPTGTRISLTQVKEFISNASFDDMKEILLEVLAWFKAHNLGNPFNYNRAFEFIVAH”, the “soluble fraction (log2)” value was -0.302.
With “HMKNELNSKLIISIKEALPPQIKVATYLMDLLSLGREAVYRRIRGDVSFDLEELSIISKALNISIDDVL”, the “soluble fraction (log2)” value was -2.53.
As for “HMKNESLMLPRDIDYSRVHGLSNEAIQKLQDALPQSLGQASRIEGITPATLSLLLLYLKKNNKRI”, the “soluble fraction (log2)” value worked out at 0.0199.
“HMKNHSTFKSVLSNIEFPINERISGHAIQNPILGLIKADHPNFSSDQYIAISELNFYREKYISNYLLTEI”: the “soluble fraction (log2)” value was -1.6.
For “HMKNKIYGTIVSSTSGEETVYKVFQVDSSKDITYLFRPDMIRLAHENNQALEFNEETGRGKRIEMSDLPK” the value was -0.0332; for “HMKNLHLVPNVVGMSAKEAKNTLKSFNIKYKPIYGSSNKYDENYIFNQNPRKGKTIKEQEVVTIYISRGAD”, not below 0.43; for “HMKNNNIIFSEFLKEVENGRVVEVRIQGNNIQGIMSNGKEFTTYSPNYPNLIEKLTETGVSISAAPL”, -0.516.
For “HMKNPLIIGMTKDKIIELIGMPDNIKFLDSSLSKSEVWNYDKFGKKLYIKDEKLYQIENIEE” the value was -0.491.
For “HMKNSAAKETILAFLKKNGGELFTQMQIIEKFQKMIPAPVLRITLEELLNKGQVEITSKGKYYLSVKGS”, the “soluble fraction (log2)” value was -0.903.
For “HMKNSKIVIQKRHNHILELLKQNRTMDVTVLAERLGVTGATIRRDLKKLEQEGTIVRSFGKVSFVG” the value was not below 0.43; for “HMKNTVGEYRKLKSTTILYSNSDLTGTKYTYLPNTTVKILKNISSTVDYVYIKATNRYAYINIYAYT”, 0.326; for “HMKNVENIILEQLKKNIYDDLNNASFEEIILIDAEKSIYKGTIKANYIEYNFKINLSTGEILKWKLK”, -0.763.
The same measure for “HMKNVSVKMILSPESLGEIQVDLVFSKGKDLEIMLRPETAEVAKLIQSNSASLREQLSLEHKGPLSLNVS”: -0.405; for “HMKNYALHEPMMDRIAKVNALYDAGHTIKYMTARGAVSMVDYYDLTKSQLDSWGAKYHELSVGK”: 0.179; for “HMKNYYEVLGVPRDAAAPDIKRAFRKLAKQFHPDHNPGDAKAEERFKLVSQAYDVLGDEEKRKLYDQFGE”: 0.254.
For “HMKNYYSILGVTPDSSEAEIKSAYRRLARKFHPDVNPDGASRFKDISEAYETLSDAKKRFQYDTINGF” the value was 0.234.
As to “HMKPATSITFIPSERPDLVEQLSKITFDKKDSLYENYINLNWLTFEAISVYMREGDIIGFST”, the “soluble fraction (log2)” value was -0.305.
In the case of “HMKPDAAKREQLIDIALRLFSQQGIARTSLNAIAREAGVTPAMLHYYFNSREQLLDVMIEERFL”, the “soluble fraction (log2)” value is -1.45.
For “HMKPDIETQLKKYRYKVSVSKKIKPYMVFSDKTLSELLTKSPTNLKELEDINGFGPVKVQEYGAAILEILK” the value was 0.148; for “HMKPDSEFTSQDLWQNDLAGTGSAAYRRDKMGALLGIGYGNAKRFLERLNSYGVTRSEFDEALAQLGE”, 0.134; for “HMKPEDIALLEEIRDLLKEKKSVIVNLEYVNKDVARRIVDFISGGVFALNGHIQKVSNSIFLVAPMN”, -0.26.
For “HMKPMNNNDILRRLRYTFDLSDDKMMETFALGGYEANRSEISDWLKKDDHPEQKSLYDKSLSHFLNGFIV” the value was -0.085; for “HMKPPVQVIGKAVVTASSLNVRTGPGTGHGIITSLPRNTEVELLEQQGEWYKIRRGSTVGYVHGGYLKIN”, -0.095.
Turning to “HMKPRISMITLGVKDLNKSIEFYGGGLGFPRKKTEPEIAIFKLNGSWLSLYNRGLLAEDANVS”, the “soluble fraction (log2)” value worked out at 0.347.
The same measure for “HMKPSKYTLAIDSIPVHVTRKQMKSIRLRVTPLGEVRVSAPYGVKDSEIVEMVRSRKLWIESQQRA”: -0.0235; for “HMKPSTETLYATARINVRAAADTSAEKLGSIEMGEAVVRTGTDGDWSIIEYNGSTGYVKSEYLTANAGDAT”: -0.188.
The same measure for “HMKPSVEIKVNGGTGAGVVKKGGSITVTANEPAEGKVFTGWQDESGKIVSTQKEYTFTVAEGTTLTAVYED”: -0.417; for “HMKPTGWVRGDMGVVDKGQLSITQGTVNVRSGPGLSYEILDQVRRGDRFPVIKSQSGWHNISM”: 0.361.
The same measure for “HMKPTSLLGIERYLGSGLIRGVGPSTAKQIVEHFGMETMEVLTEHPERLQEVHGMGRKRWRQIAESFQEQQ”: -0.0617; for “HMKPVTVINFVGMTEEKAMTEAEKLGLVVGASSSEYSDEPAGTVIRQSISVSTEAKTGDNIYFTVSKGPE”: -0.416.
Regarding “HMKQETLNEIGTKIRKLRESKNLSIQEFADKLEMEYNNVIRIEKGRTNFTIGTLVKIANSLEVNLKDI”, the “soluble fraction (log2)” value is -1.01.
As to “HMKQFVVQYYGIDGEVINSVYKNGMSDLTSYEPEKIDGKNFKGWSLSEDSKKVIDENYRINSDVNLYAVYT”, the “soluble fraction (log2)” value amounted to 0.15.
“HMKQHPTIDLQIGQKLHYKEDVFEVTRFAKDKNGQDMVILKDPSIGSGIEIPWYRSKLEEIIESGQYKIT”: the “soluble fraction (log2)” value is -0.113.
The same measure for “HMKQIEEIIARYTNENTPLMMILSDVQREYGYIPLDVQELISEKTGIPVAEIYGVVTFYSFFSL”: -0.337; for “HMKQISQNIHRLRKEKGMSQEQLAQALHVTRQTVSAWERGIAQPSLDVLGQIAQLLGVEPERLLYGE”: -0.16.
The same measure for “HMKQLQIPYSFAKRHGVLLRYEGDQAFIVRRDNTSMLALQEARRLLGHPAHYLLYSEQEFNQLLSASFA”: -0.455; for “HMKQLVVVPRVVSLSEGKAREDVGDRGLVVDRVEMDTLRTPYENTVTRQEPAADSRVPVGTRVTLWISPGV”: -0.0648; for “HMKQNSDDGEIRKIIIEILDNNLDNVNKYKSGRTNVLDFFVGQVMKQTRGQANPELTRSILTEELSN”: 0.00746.
The same measure for “HMKQQTRAELLDEFAKAHAERGLYFNRDYEQGEIQALQPDKAREYLQSALEARTERQQASEQDR”: 0.266; for “HMKQTDQELAEMLRFRAAQRGLLMSDEVVNYVMTRVERSAKSLIMLLDRIDRAALAQARPVTIPLINEL”: -0.606; for “HMKQVEVPRLVGLTLREAQAVLGQVGLRIGLISRAALLASPREQIVEQIPVAGERNIATPYVNLLVNVP”: -0.324.
Take “HMKRDEYIAQLKKYLKRLPKKEYDSAIEYFTEYFDEAGPERELEVIQELGQPKEAAKEMLLQLLNE”: the “soluble fraction (log2)” value is -0.506.
Consider “HMKRDNETRRRIVAAAEELFRAKGLDGVNMRELAEMAGVNKGLLHYYFKTKQALFREILVGQMAL”, for which the “soluble fraction (log2)” value is -0.0908.
The same measure for “HMKRDRLYGITIYLLNHGRTSAKTLAEYFEVSVRTIQRDMDALSMAKIPIIAYPGSDGGYEIQEGYRL”: -0.37; for “HMKRDYELPAFIETYLKKNHVAIDTKSAAMIAEHIGADLSRLISELDKVMISLPDDDRRVTPDVVEREI”: -0.436.
Take “HMKREETLKALATKNANYVARSGRRYSFEPMNPYERRIIHTAVQEIEGVTSRSIGSGMDRRVLIEPEGGV”: the “soluble fraction (log2)” value is -0.234.
The same measure for “HMKRELFVEPGMRLEHTPSKTSGPVVSFIEGVIVVIKDQLGSEHRFDPVPGFFRHEGDLVALRSPLL”: 0.044; for “HMKRIDTILETFAKVHKHIPSKLILLGDGPELLDMRKIARSLHIEDDVLFLGKQDQVSKFYQMADLVLLL”: 0.15; for “HMKRIHLSDEEKTDLESLHYSSNDGKQRDRIKAVLLRSEGWTVPMISQALRIHETTVTRYLNDYREGKLKN”: -0.143.
